The record followed here is patent US20050084890A1, “High-throughput screening assay for inhibitors of replication protein A” (priority 2003, published 2005).

In series [1] the target is T1, RPA (Homo sapiens, UniProt P27694).
T1 construct: made in house; host or cells: Escherichia coli
The experiment in a line: Homogeneous high-throughput fluorescence assay of RPA's DNA binding activity (96-well). To be noted: blind experiment; 5, 25 or 50 pmol competitor in 3 of 96 wells. As for the experimental part:
Specifically, the percentage inhibition is calculated by taking the difference between the fluorescence values of reactions containing DNA and RPA and reactions containing DNA, RPA, and the test compound and dividing by the difference between the fluorescence values of reactions with DNA and RPA and the fluorescence of the DNA alone. This value is then multiplied by 100 to give percentage inhibition. The measurement is typically reported as fluorescence above the background fluorescence of the reporter alone. In one aspect the of the assay the DNA is single stranded DNA.
In accordance with one exemplary embodiment of the present invention, a homogeneous high-throughput screening assay is provided that employs a novel fluorescent reporter for measuring RPA's DNA binding activity. […] The fluorescence is then quantified in a 96-well plate fluorescence spectrophotometer. […]
RPA (10 pmol) was added to each well of a 96-well plate in a volume of 100 μl. […] Plates were read in a fluorometer. Fluorescence emission was read at 518 nm following excitation at […]. Fluorescence was read using a 96-well plate reader with a 2.5 nm excitation slit width and a 5 nm emission slit width. […] The data is presented as fluorescence above the background fluorescence of the reporter alone unless indicated otherwise. […]

The target of series [2] is T2, Replication Protein A (RPA) (Homo sapiens, UniProt P27694;P15927;P35244 P27694:1-616,P15927:1-270,P35244:1-121). The experiment in a line: fluorescence enhancement (ex 498 nm, em 518 nm); hyperbolic curve saturating at 1:1 RPA:DNA. Conditions: tags: expressed in E. coli from vector pdT11 (Marc Wold); label: 5' fluorescein. Here is the method: In an effort to investigate the effect small molecules have on the interaction of RPA with DNA, an HTS assay was developed that relies on the use of a fluorescein-labeled ssDNA substrate. […] In an effort to optimize the detection, fluorescent excitation and emission wavelengths were tested along with varying slit widths and voltages. The optimal parameters were excitation at 498 nm and emission at […]. The optimal excitation and emission slit widths and voltage were 2.5 and 5 nm and 800 V, respectively.
T2 sequence (P27694 whole entry, chain 1 of 3): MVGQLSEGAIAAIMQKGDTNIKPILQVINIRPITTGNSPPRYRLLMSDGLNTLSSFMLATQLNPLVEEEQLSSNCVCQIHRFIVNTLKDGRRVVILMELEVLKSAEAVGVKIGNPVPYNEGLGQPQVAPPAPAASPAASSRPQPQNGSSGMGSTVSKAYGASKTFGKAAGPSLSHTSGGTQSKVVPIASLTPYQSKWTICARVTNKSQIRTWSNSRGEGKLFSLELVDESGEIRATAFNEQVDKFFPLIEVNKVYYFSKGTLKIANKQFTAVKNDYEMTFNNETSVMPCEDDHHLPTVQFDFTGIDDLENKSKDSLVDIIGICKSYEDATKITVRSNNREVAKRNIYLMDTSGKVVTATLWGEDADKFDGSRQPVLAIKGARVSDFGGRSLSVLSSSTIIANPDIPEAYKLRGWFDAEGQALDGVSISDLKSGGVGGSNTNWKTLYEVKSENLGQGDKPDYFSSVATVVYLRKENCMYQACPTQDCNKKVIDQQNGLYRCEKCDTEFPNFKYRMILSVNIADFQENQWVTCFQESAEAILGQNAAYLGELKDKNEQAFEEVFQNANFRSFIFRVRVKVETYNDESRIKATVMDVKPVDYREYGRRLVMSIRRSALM
T2 sequence (P15927 whole entry, chain 2 of 3): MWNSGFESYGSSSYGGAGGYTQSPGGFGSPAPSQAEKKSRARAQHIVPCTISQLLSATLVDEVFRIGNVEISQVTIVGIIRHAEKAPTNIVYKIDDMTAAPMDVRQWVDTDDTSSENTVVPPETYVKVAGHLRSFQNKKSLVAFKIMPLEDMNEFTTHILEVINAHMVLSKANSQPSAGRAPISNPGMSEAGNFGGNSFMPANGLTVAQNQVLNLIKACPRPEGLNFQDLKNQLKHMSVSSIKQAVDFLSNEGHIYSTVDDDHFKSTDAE
T2 sequence (P35244 whole entry, chain 3 of 3): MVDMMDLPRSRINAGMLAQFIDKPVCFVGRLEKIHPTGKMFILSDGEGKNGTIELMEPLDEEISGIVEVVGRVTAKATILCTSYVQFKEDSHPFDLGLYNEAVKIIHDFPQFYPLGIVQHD
In an attempt to test a large number of compounds simultaneously, the assay was converted to a 96-well plate format. In this assay, the fluorescein-labeled DNA was diluted into assay buffer and 100 μl were dispensed into each well. The fluorescence of each well was then read. Each well then received 100 μl RPA and the fluorescence of each well was read again. Percentage increase of fluorescence was then calculated from these two readings and is represented in FIG. 1.

In series [3] the target is T2, Replication Protein A (RPA). Description: competition; 5, 25 or 50 pmol unlabeled DNA inhibits RPA binding to the fluorescein-labeled reporter. Conditions: tags: expressed in E. coli from vector pdT11 (Marc Wold). Here is the method: RPA (10 pmol) was added to each well of a 96-well plate in a volume of 100 μl. Individual compounds were added to each well followed by the fluorescent reporter. The final reaction volume was 200 μl. Plates were read in a fluorometer. Fluorescence emission was read at 518 nm following excitation at […]. Fluorescence was read using a 96-well plate reader with a 2.5 nm excitation slit width and a 5 nm emission slit width. To calculate the percentage inhibition, the difference between the fluorescence values of reactions containing DNA and RPA and […] the test compound was divided by the difference between the fluorescence values of reactions with DNA and RPA and the fluorescence of the DNA alone. This value was then multiplied by 100 to give percentage inhibition. The data is presented as fluorescence above the background fluorescence of the reporter alone unless indicated otherwise.
To determine the effectiveness of this assay, a blind experiment was performed in which 3 of the 96 wells were added to 5, 25, or 50 pmol DNA substrate that has the exact sequence of the fluorescent DNA reporter without the fluorescein label. This DNA would compete for RPA, therefore acting as an inhibitor. […] The effect of DMSO on reaction sensitivity and reproducibility was assessed and the results indicated no difference in assay sensitivity.

For series [4] the target is unchanged. The experiment in a line: FP; polarization r max 0.23 without compound; saturation at about 15 pmol RPA in control as printed. To be noted: tags: expressed in E. coli from vector pdT11 (Marc Wold); label: fluorescein. Here is the method: To more precisely determine if the method of inhibition was via an interaction with DNA or RPA, fluorescence polarization experiments were conducted. Fluorescence polarization is a measure of the rate at which an object tumbles or rotates in three-dimensional space. In this experiment, a fluorescein-labeled dT₃₀ substrate DNA is employed which results in a baseline polarization that is increased upon RPA binding; to the DNA and slowing its rotation. Using this method, it can be determined if the interaction of the compound was with DNA or RPA by constructing binding isotherms varying RPA at a fixed concentration of DNA with and without the addition of specific compounds. Using fluorescence polarization, compounds that exert their inhibitory effect through an interaction with the DNA were capable of being identified. Fluorescence polarization was performed by titrating RPA into a reaction containing fluorescein-labeled dT₃₀ DNA in the presence and absence of 20 μM compound (FIG. 5). […] This conclusion is further supported by experiments performed measuring the effect of compound 1:51 on polarization of the DNA in the absence of RPA. In these reactions, the r value of the DNA plus compound was slightly greater than the r value of the DNA without compound.

T1 sequence (P27694 whole entry): as the sequence (P27694 whole entry, chain 1 of 3) above
T1 sequence (P15927 whole entry partner): as the sequence (P15927 whole entry, chain 2 of 3) above
T1 sequence (P35244 whole entry partner): as the sequence (P35244 whole entry, chain 3 of 3) above

For “DNA substrate that has the exact sequence of the fluorescent DNA reporter without the fluorescein label: unlabeled 30 base ssDNA of SEQ ID NO: 1 sequence, competes for RPA, acting as an inhibitor (DNA GGGGAAGTAAGGACGCGGAAAGGATAGGGG; DNA, backbone not given here; unlabeled competitor ssDNA)”, the “inhibition of RPA binding to the fluorescein-labeled DNA” value in series [1] is listed as “significant inhibition”.
Consider GGGGAAGTAAGGACGCGGAAAGGATAGGGG (ssDNA) [30-base purine-rich reporter DNA], for which the binding result in series [2] is given as “binds”.
Regarding GGGGAAGTAAGGACGCGGAAAGGATAGGGG (ssDNA) [30-base unlabeled competitor DNA], the binding result in series [3] is given as “binds”.
As to TTTTTTTTTTTTTTTTTTTTTTTTTTTTTT (ssDNA, [NONE]) [dT30], the binding result in series [4] is recorded as “binds”.
